Measured values from the DeepSol protein solubility set.

Test: soluble on expression in E. coli; label from the status in PepcDB or PDB records

Sequence	soluble on expression in E. coli
MTKAETSIGVFYVSEYGYSDRLAQAIINGITKTGVGVDVVDLGAAVDLQELRELVGRCTGLVIGMSPAASAASIQGALSTILGSVNEKQAVGIFETGGGDDEPIDPLLSKFRNLGLTTAFPAIRIKQTPTENTYKLCEEAGTDLGQWVTRDRSIKAMKSLGLEHHHHHH	soluble
MTKERFVISRRRTGFGDCLWSLASAWSYAQRTGRTLVIDWRGSCYVEQPFSNAFPAFFEPVEDIAGVPVICDDRVNQLSFPGPFFPRWWNRPSIDCINRPDEQIFRERDELTELFQAREDSEANTIVCDACLMWRCSEEAERLIFRNIKLRSEIRARIDALYEEHFSGHSIIGVHVRHGNGEDIMEHAPYWADSELALHQVCMAIRKAKALSYPKPVKVFLCTDSAQVLDQVSGLFPDVFAVPKRFQADRAGPLHSAEMGIEGGASALIDMYLLARCATVIRFPPTSAFTRYARLLVPRIIEFDLSNPGHLTMIDNPYEHFAASHHHHHH	soluble
MTKIFEAKVLAVGPEALSMIKDANMLILFGEEAPQDLADYCYKIDNKNLSGHIKKGGHLVINGNDCQITAVGSVVEKNLTGLGHITISLDGSKESSLPGTLHIQAEFPVQLEAGSLIQIFD	soluble
MTKKDKKEVKVQTVTTEDGETVKVFEDLQGFETFIANETEDDDFDHLHCKLNYYPPFVLHESHEDPEKISDAANSHSKKFVRHLHQHIEKHLLKDIKQAVRKPELKFHEKSKEETFDKITWHYGEETEYHGRPFKIDVQVVCTHEDAMVFVDYKTHPVGAN	soluble
MTKQDQLIVEKMEQTYEAFSPKLANLIEALDAFKEHYEEYATLRNFYSSDEWFRLANQPWDDIPCGVLSEDLLFDMIGDHNQLLADILDLAPIMYKHM	not soluble
MTKSKSKKEDLIPEIGDFTKFFKSRSKFSDQITDVISNVYEWSTSLEPSEDNLPLPFVSKNEEVVWSYLKHQNKQLDGINKKYKGFLSELIGKSHIRVAAKIQDSEGSEDGSDGSDGGSEEELDDDEEELEDEELEDEMIDDEDEADLFNLSESDLKTLDADLKKMEEEEAGEEKEEVEKATEQPKKFKKSIVDDQFFNLDEMHDFLQKTERAGGKKAAQDEEMMFEDEDSWDGKTDYTYEDFFGSRETVAETEKMNGEKKKIEKDKKRKAGDKADLSLDDGKNKKRVRFAMDEEPEEEEVEDEEQEDINDEEEPPEDEPVLLGADLEEPKEESAFAKRQSKMKERIAKLEEENLAPKSWELSGEVAADQRDQNTLLEKHVDFDHGAKRAPEVTEEFTDRLESLIKQRIRDKAWDDVIRVKKVEAKGAKFETEAIENQMNQKTSLAEVYEKEYQNSTGNSADGAAGATKPNEAHEAIKSKMGDLFRLIDALTHFEYKPDQAREEVKVVSNMAALRVEEVGITASTEAQLMAPEEISKKMKAIEKSKDERDATDKARERRQKKAKQRSMLEKFGEERVFGEQKAVKLAKKERKAGKEKGGGVDKIKSSNFFAKLQETVAAEKKDGAVTKKKKKIVKRLKSDKNSAAIKL	not soluble
MTLEIRPAVPADAEQILAFIIELADYERARHEVVTDVEGIRRSLFAEGSPTRALMCLSEGRPIGYAVYFYSYSTWLGRNGIYLEDLYVTPEYRGVGAGRRLLRELAREAVANDCGRLEWSVLDWNQPAIDFYRSIGALPQDEWVRYRLDGEALRKMAE	soluble
MTLISPELKTQGFYASSYKGTDLIGLTKHYFREKHMKQLMLTLGIVNTYDKIKVLDAHYRAIARAAPICHAFGFHLALYDFPFKMTAEELVAFVMEKTTIGESGSYLKILYEKNHLSVSDLPKKGFPSQFGETVITTSKPDPKRKVMPVKIAEEALHNRSFLFLVGLGHKGLPKELFERGKYHLDITSKGLSLETCTAIGAVPAHLAGLMENLRCKK	not soluble
MTLLTVKHLTITDTWTDQPLVSDVNFTLTKGETLGVIGESGSGKSITCKSIIGLNPERLGVTGEIIFDGTSMLSLSESQLKKYRGKDIAMVMQQGSRAFDPSTTVGKQMFETMKVHTSMSTQEIEKTLIEYMDYLSLKDPKRILKSYPYMLSGGMLQRLMIALALALKPKLIIADEPTTALDTITQYDVLEAFIDIKKHFDCAMIFISHDLTVINKIADRVVVMKNGQLIEQGTRESVLHHPEHVYTKYLLSTKKKINDHFKHVMRGDVHD	not soluble
MTLMGFRVKKVRNHVLWDKENDDRNAFTVIIGNNGCGKTELLIDTCNKYHSYYTSALLDKDTHVASAVHYLREDFSPHNWKTVEREYGHRLPRKLIAASTSQFEKFKANWSVRNDLVPSGFYAYIGSKPYMPSLSPSTRIASKAIQQLLGAEYFEERKHKALVGFLSKFDFGQKLLLKFELTFPNEDLENIQNQSLTEPETQLILKNAYIEHDEMELVELLGYCERIIEAPAFALTVGNQNLNLIHLKGSEQKPFSKLIISRMLRAGLITLSSIQTMKDKSLINDQSTVNIESSAISSLSKRSSGEQ	not soluble
MTLSEEVASLQRAAHDLMYLGMDGSPIYSDDLSRRNNEVYRLTTTLYNSGVQGSTVEEQASVCLALLMGYNASFIDHGEKREHVQKILDRCWDILDTLPASLLKLRLLTACYGEVFDEPLADEARAIIASWDSVSLTTEQQEAINEFQTVVDNPYPWEYVEE	not soluble
MTLVVPFDGSELAEAALVRAAEFGTVFEEDVLAVSVIRNGNAKYAREHDWIGPNEDFDLEAVVTSLHEQVIDLCPSSDFRHTVVDRYAPAGAVAKAIRKLAKREDASMVFIGSENAGHLVTSISSVGGSIASDDAYDVVIVRHR	not soluble
MTMETVESQHDGSITASLTESKSAHVQTQTGQNSIPALAQVAAIAETDESAESGGVIDSHKRREILSRRPSYRKILNELSSDVPGVPKIEEERSEEEGTPPSIATMAVPTSIYQTSTGQYIAIAQGGTIQISNPGSDGVQGLQALTMTNSGAPPPGATIVQYAAQSADGTQQFFVPGSQVVVQAATGDMPTYQIRAPTAALPQGVVMAASPGSLHSPQQLAEEATRKRELRLMKNREAAKECRRRKKE	soluble
MTMPDYDLIAILGPTASGKTPFAAALAAELNTEIISADSRQIYRGMDLGTGKDLEDYTINGRQIPYHLIDIADPGYKYNVFEYQRDFLTAYETIKQKGCLPVLCGGTGLYLESVLKGYRLIPVPENQELRVRLAEKSLEELTAILSSYKTLHNSTDVDTVKRAIRAIEIEEYYAKTPIEEREFPQLNSLIIGVDIDRELRREKITRRLKQRLDDGMVEEVRRLLAEGIQPDDLIYYGLEYKYLTLYAIGKMTYDEMFTGLETAIHQFAKRQMTWFRGMERRGFTIHWVDASLPMEEKINFVKQKLKEFLEHHHHHH	not soluble
MTMTLHTKASGMALLHQIQGNELEPLNRPQLKIPLERPLGEVYLDSSKPAVYNYPEGAAYEFNAAAAANAQVYGQTGLPYGPGSEAAAFGSNGLGGFPPLNSVSPSPLMLLHPPPQLSPFLQPHGQQVPYYLENEPSGYTVREAGPPAFYRPNSDNRRQGGRERLASTNDKGSMAMESAKETRYCAVCNDYASGYHYGVWSCEGCKAFFKRSIQGHNDYMCPATNQCTIDKNRRKSCQACRLRKCYEVGMMKGGIRKDRRGGRMLKHKRQRDDGEGRGEVGSAGDMRAANLWPSPLMIKRSKKNSLALSLTADQMVSALLDAEPPILYSEYDPTRPFSEASMMGLLTNLADRELVHMINWAKRVPGFVDLTLHDQVHLLECAWLEILMIGLVWRSMEHPVKLLFAPNLLLDRNQGKCVEGMVEIFDMLLATSSRFRMMNLQGEEFVCLKSIILLNSGVYTFLSSTLKSLEEKDHIHRVLDKITDTLIHLMAKAGLTLQQQHQRLAQLLLILSHIRHMSNKGMEHLYSMKCKNVVPLYDLLLEMLDAHRLHAPTSRGGASVEETDQSHLATAGSTSSHSLQKYYITGEAEGFPATV	soluble
MTNDFATVLRQFVEGLDLGIKPRLDYLTRQEDLAIYPMPGGKVNNEYMDGTREISLPFEIAIKTKNQELASTVMWTINSALSNFDLKLPSLNHSYTFISLDVEKPFLNDLSDQGFYIYVLDITAHLEIEGNN	soluble
MTNFATTDDVILLWRQLSVDEIKRAEALLETVSDTLRLEASKVGKNLDEMILETPYFATVLKSVTVDIVARTLMTATQGEPMSQESQSALGYTWSGTYLVPGGGLFIKDSELKRLGLKKQRYGGIELYGEIERNNSYFSRQDD	not soluble
MTNHPIQGLMTTAMENLKQMIDVNTIIGDPVETPDGSVILTVSKVGFGFAAGGSEFMLDGQQNGHQGAQADGNGHPFGGGSGGGVSITPIAFLVVNSSGVKLLHLDESTHLYEKILDVAPQAFEKIQAMLKKNKKDGAAGQKADDFDI	not soluble
MTNLNYQQTHFVMSAPDIRHLPSDCGIEVAFAGRSNAGKSSALNTLTNQKSLARTSKTPGRTQLINLFEVVDGKRLVDLPGYGYAEVPEEMKRKWQRALGEYLEKRQSLQGLVVLMDIRHPLKDLDQQMIQWAVESNIQVLVLLTKADKLASGARKAQLNMVREAVLAFNGDVQVEAFSSLKKQGVDKLRQKLDSWFSELAPVEEIQDGE	not soluble
MTNPTRTKRCGGDVLCGIDNHFQLLLYISENHCQLETKTFFEYFLRIVNKTHDYAILENKKICISHLEHHHHHH	not soluble
MTNSSNLIDSLEVYVLNNPDEVKPHWVSHFIVPTANELLIKIKNKDGHSGFGLATSYTDIAPIIKPFSNGLQDLIIGEDPFCPEKIYEKIFKLTDTRLSSEKGWSREALIRISAALDIACWDLIGKASNIPLYKLFGGFRNKIPVYVTCAYYRDGKDEKELRDEIKKLVNIGHKSFKVKVGGLSIKEDVKRLEIIRDEIGDQKGLMIDVNRAWDLKTAIEGVKEFEKFKPTWIEEPVRWEDDRRTLKLLSKQTKIPLSGGESEVTIYGCRSMIEEDAIQILQFDCTMFGGFTNGKKLSALCELNHIDVAPHHDCYIHAPLVASTPAGRIVESFDDERDPLQAQLFENPHKMSEGWIHLNKKPGLGLEISDAALKKFGKLVYKNK	soluble
MTPRIEVAAPKEPITINMNVKIEHEIIIKADKDVEELLETRSDLFLEHHHHHH	not soluble
MTPVQIAAVVVTYESSSTIDACLSRLRAAEGISEIRVVDNASSDDTLEVVQRHALADARLHFIANPDNPGFATACNQGARDSQAPWLVFINPDLMIARDTLLQLYHRAAGHPAVLLGVEQVDEQGRPDAAVRRRDPDFAAMLRAPRAAANLAVPADPSRALQPVDAISGALMLMQRSLFDRLDGWDGSYRLHAEDLDLCRRARQAGALVAVANDLHVLHVRGVSSRARPFFVEWHKHRGLWRYFRKFEADRRGLLTRLGVWLAIWSHAAAQVPRLLQNKLEHHHHHH	not soluble
MTPYNEREVLKLLQEESTQRKGFELIVAQYSEQLYWQIRRMVLSHEDANDLLQNTFIKAWTNIDYFRAEAKLSTWLYRIALNECLTFLNRQRATTTVAIDDPEAAIVQKLESDPYYSGDQVQMLLQKALLTLPEKQRMVFNLKYYQEMKYEEMSEIFGTSVGALKASYHHAVKKIEKFLEEVD	not soluble
